# Data published in US20120172293A1 (Takeda / Millennium, published 2012).
# Starred links: 1 amine or outer side, 2 acyl side, 3 side chain; linkers in the order of their positions; H or OH if unused. Non-standard residues stand in square brackets, D forms with d. No end group written: not given here. *: point of attachment. 2‑hydroxyethylcarbamoyl = O=C(NCCO)*; tBuAla = CC(C)(C)C[C@H](N)C(=O)O; Cha = N[C@@H](CC1CCCCC1)C(=O)O; Suc = O=C(CCC(=O)[*:2])[*:1]; 4Amb = NCc1ccc(C(=O)O)cc1; Aib = CC(C)(N)C(=O)O; Carbamoyl = NC(=O)*
# T1: human Y2 receptor (human, UniProt P49146 1-381)
# T1 sequence (looked up): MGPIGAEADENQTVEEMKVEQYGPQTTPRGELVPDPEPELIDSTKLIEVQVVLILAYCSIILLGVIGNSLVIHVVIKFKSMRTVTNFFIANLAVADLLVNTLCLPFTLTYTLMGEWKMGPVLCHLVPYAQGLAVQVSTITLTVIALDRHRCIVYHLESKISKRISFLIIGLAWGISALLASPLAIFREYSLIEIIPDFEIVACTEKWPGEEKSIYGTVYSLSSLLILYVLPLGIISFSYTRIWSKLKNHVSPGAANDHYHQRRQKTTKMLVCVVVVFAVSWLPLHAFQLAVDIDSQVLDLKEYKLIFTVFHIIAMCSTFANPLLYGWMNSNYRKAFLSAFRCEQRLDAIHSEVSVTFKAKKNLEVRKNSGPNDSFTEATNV
# Legend:
# human Y2 receptor [1] = target: T1, human Y2 receptor; assay: cell-based or functional assay
# human Y2 receptor [2] = target: T1, human Y2 receptor; assay: RBA: [125I]-PYY displacement, hY2R/CHO membranes
# Experimental: After incubation at room temperature for 60 minutes, the mixture was filtered through the cell harvester FilterMate (PerkinElmer) using UniFilter-96 GF/C treated with polyethylenimine (PEI) solution (20 mM Tris, 0.3% PEI, pH 7.4), and the filter was washed 3 times with a filtering buffer (50 mM Tris, 5 mM MgCl₂, 150 mM NaCl, 0.03% NaN₃, 0.05% CHAPS, pH 7.4). Thereafter, UniFilter-96 GF/C was dried in a mechanical drier for 1 hour, 15 μl of the liquid scintillator MicroScint O (PerkinElmer) was added to each well, and a measurement was taken using TopCount (PerkinElmer). The data obtained were analyzed using Prism to calculate the IC₅₀ value.
Binder,"GBA EC50 Ratio (vs PYY(3-36)), [35S]GTPγS (human Y2 receptor [1]) [ratio]",IC50 Ratio (vs PYY(3-36)) (human Y2 receptor [2]) [ratio]
"[4Amb][dR]AYINLITRQRY-NH2 (N-terminus assumed; SMILES CC[C@H](C)[C@H](NC(=O)[C@H](Cc1ccc(O)cc1)NC(=O)[C@H](C)NC(=O)[C@@H](CCCNC(=N)N)NC(=O)c1ccc(CN)cc1)C(=O)N[C@@H](CC(N)=O)C(=O)N[C@@H](CC(C)C)C(=O)N[C@H](C(=O)N[C@H](C(=O)N[C@@H](CCCNC(=N)N)C(=O)N[C@@H](CCC(N)=O)C(=O)N[C@@H](CCCNC(=N)N)C(=O)N[C@@H](Cc1ccc(O)cc1)C(N)=O)[C@@H](C)O)[C@@H](C)CC, also called compound No. 9) [4-Aminomethylbenzoyl-[D-Arg25, Ala26, Ile28,31]-PYY(25-36)]",23,92
"Carbamoyl-S[dP]RH[Cha][Cha]NL[Aib]TRQR[Cha]-NH2 (SMILES CC(C)C[C@H](NC(=O)[C@H](CC(N)=O)NC(=O)[C@H](CC1CCCCC1)NC(=O)[C@H](CC1CCCCC1)NC(=O)[C@H](Cc1c[nH]cn1)NC(=O)[C@H](CCCNC(=N)N)NC(=O)[C@H]1CCCN1C(=O)[C@H](CO)NC(N)=O)C(=O)NC(C)(C)C(=O)N[C@H](C(=O)N[C@@H](CCCNC(=N)N)C(=O)N[C@@H](CCC(N)=O)C(=O)N[C@@H](CCCNC(=N)N)C(=O)N[C@@H](CC1CCCCC1)C(N)=O)[C@@H](C)O, also called compound No. 130; Ureido-[D-Pro24,Cha27,28,36,Aib31]-PYY(23-36)) [Carbamoyl-[D-Pro24, Cha27,28,36, Aib31]-PYY(23-36)]",1,1.8
"Ac-N[dP]RH[Cha][Cha]NL[Aib]TRQR[Cha]-NH2 (SMILES CC(=O)N[C@@H](CC(N)=O)C(=O)N1CCC[C@@H]1C(=O)N[C@@H](CCCNC(=N)N)C(=O)N[C@@H](Cc1c[nH]cn1)C(=O)N[C@@H](CC1CCCCC1)C(=O)N[C@@H](CC1CCCCC1)C(=O)N[C@@H](CC(N)=O)C(=O)N[C@@H](CC(C)C)C(=O)NC(C)(C)C(=O)N[C@H](C(=O)N[C@@H](CCCNC(=N)N)C(=O)N[C@@H](CCC(N)=O)C(=O)N[C@@H](CCCNC(=N)N)C(=O)N[C@@H](CC1CCCCC1)C(N)=O)[C@@H](C)O, also called compound No. 115) [Ac-[Asn23, D-Pro24, Cha27,28,36, Aib31]-PYY(23-36)]",1.7,2.4
"Ac-S[dP]RH[Cha][Cha]NT[Aib]TRQR[Cha]-NH2 (SMILES CC(=O)N[C@@H](CO)C(=O)N1CCC[C@@H]1C(=O)N[C@@H](CCCNC(=N)N)C(=O)N[C@@H](Cc1c[nH]cn1)C(=O)N[C@@H](CC1CCCCC1)C(=O)N[C@@H](CC1CCCCC1)C(=O)N[C@@H](CC(N)=O)C(=O)N[C@H](C(=O)NC(C)(C)C(=O)N[C@H](C(=O)N[C@@H](CCCNC(=N)N)C(=O)N[C@@H](CCC(N)=O)C(=O)N[C@@H](CCCNC(=N)N)C(=O)N[C@@H](CC1CCCCC1)C(N)=O)[C@@H](C)O)[C@@H](C)O, also called compound No. 132) [Ac-[D-Pro24, Cha27,28,36, Thr30, Aib31]-PYY(23-36)]",3.1,6.1
"Suc-S[dP]RH[Cha][Cha]NK[Aib]TRQR[Cha]-NH2 (SMILES C[C@@H](O)[C@H](NC(=O)C(C)(C)NC(=O)[C@H](CCCCN)NC(=O)[C@H](CC(N)=O)NC(=O)[C@H](CC1CCCCC1)NC(=O)[C@H](CC1CCCCC1)NC(=O)[C@H](Cc1c[nH]cn1)NC(=O)[C@H](CCCNC(=N)N)NC(=O)[C@H]1CCCN1C(=O)[C@H](CO)NC(=O)CCC(=O)O)C(=O)N[C@@H](CCCNC(=N)N)C(=O)N[C@@H](CCC(N)=O)C(=O)N[C@@H](CCCNC(=N)N)C(=O)N[C@@H](CC1CCCCC1)C(N)=O, also called compound No. 167) [3-Carboxypropionyl-[D-Pro24, Cha27,28,36, Lys30, Aib31]-PYY(23-36)]",1.1,0.64
"Ac-S[dP]RH[Cha][Aib]NK[Aib]TRQR[Cha]-NH2 (SMILES CC(=O)N[C@@H](CO)C(=O)N1CCC[C@@H]1C(=O)N[C@@H](CCCNC(=N)N)C(=O)N[C@@H](Cc1c[nH]cn1)C(=O)N[C@@H](CC1CCCCC1)C(=O)NC(C)(C)C(=O)N[C@@H](CC(N)=O)C(=O)N[C@@H](CCCCN)C(=O)NC(C)(C)C(=O)N[C@H](C(=O)N[C@@H](CCCNC(=N)N)C(=O)N[C@@H](CCC(N)=O)C(=O)N[C@@H](CCCNC(=N)N)C(=O)N[C@@H](CC1CCCCC1)C(N)=O)[C@@H](C)O, also called compound No. 135) [Ac-[D-Pro24, Cha27,36, Aib28, Lys30, Aib31]-PYY(23-36)]",0.84,1.9

# Next, values leading:
"GBA EC50 Ratio (vs PYY(3-36)), [35S]GTPγS (human Y2 receptor [1]) [ratio]",IC50 Ratio (vs PYY(3-36)) (human Y2 receptor [2]) [ratio],Binder
9.5,68,"Ac-S[dP]RE[Cha][Cha]NL[Aib]TRQR[Cha]-NH2 (SMILES CC(=O)N[C@@H](CO)C(=O)N1CCC[C@@H]1C(=O)N[C@@H](CCCNC(=N)N)C(=O)N[C@@H](CCC(=O)O)C(=O)N[C@@H](CC1CCCCC1)C(=O)N[C@@H](CC1CCCCC1)C(=O)N[C@@H](CC(N)=O)C(=O)N[C@@H](CC(C)C)C(=O)NC(C)(C)C(=O)N[C@H](C(=O)N[C@@H](CCCNC(=N)N)C(=O)N[C@@H](CCC(N)=O)C(=O)N[C@@H](CCCNC(=N)N)C(=O)N[C@@H](CC1CCCCC1)C(N)=O)[C@@H](C)O, also called compound No. 151) [Ac-[D-Pro24, Glu26, Cha27,28,36, Aib31]-PYY(23-36)]"
0.63,0.57,"Ac-S[dP]RH[Cha][tBuAla]NK[Aib]TRQR[Cha]-NH2 (SMILES CC(=O)N[C@@H](CO)C(=O)N1CCC[C@@H]1C(=O)N[C@@H](CCCNC(=N)N)C(=O)N[C@@H](Cc1c[nH]cn1)C(=O)N[C@@H](CC1CCCCC1)C(=O)N[C@@H](CC(C)(C)C)C(=O)N[C@@H](CC(N)=O)C(=O)N[C@@H](CCCCN)C(=O)NC(C)(C)C(=O)N[C@H](C(=O)N[C@@H](CCCNC(=N)N)C(=O)N[C@@H](CCC(N)=O)C(=O)N[C@@H](CCCNC(=N)N)C(=O)N[C@@H](CC1CCCCC1)C(N)=O)[C@@H](C)O, also called compound No. 136) [Ac-[D-Pro24, Cha27,36, Leu(Me)28, Lys30, Aib31]-PYY(23-36)]"
2.6,7.1,"Ac-[dT][dP]RH[Cha][Cha]NL[Aib]TRQR[Cha]-NH2 (SMILES CC(=O)N[C@@H](C(=O)N1CCC[C@@H]1C(=O)N[C@@H](CCCNC(=N)N)C(=O)N[C@@H](Cc1c[nH]cn1)C(=O)N[C@@H](CC1CCCCC1)C(=O)N[C@@H](CC1CCCCC1)C(=O)N[C@@H](CC(N)=O)C(=O)N[C@@H](CC(C)C)C(=O)NC(C)(C)C(=O)N[C@H](C(=O)N[C@@H](CCCNC(=N)N)C(=O)N[C@@H](CCC(N)=O)C(=O)N[C@@H](CCCNC(=N)N)C(=O)N[C@@H](CC1CCCCC1)C(N)=O)[C@@H](C)O)[C@H](C)O, also called compound No. 158) [Ac-[D-Thr23, D-Pro24, Cha27,28,36, Aib31]-PYY(23-36)]"
0.71,0.6,"{2‑hydroxyethylcarbamoyl}-S[dP]RH[Cha][tBuAla]NK[Aib]TRQR[Cha]-NH2 (SMILES C[C@@H](O)[C@H](NC(=O)C(C)(C)NC(=O)[C@H](CCCCN)NC(=O)[C@H](CC(N)=O)NC(=O)[C@H](CC(C)(C)C)NC(=O)[C@H](CC1CCCCC1)NC(=O)[C@H](Cc1c[nH]cn1)NC(=O)[C@H](CCCNC(=N)N)NC(=O)[C@H]1CCCN1C(=O)[C@H](CO)NC(=O)NCCO)C(=O)N[C@@H](CCCNC(=N)N)C(=O)N[C@@H](CCC(N)=O)C(=O)N[C@@H](CCCNC(=N)N)C(=O)N[C@@H](CC1CCCCC1)C(N)=O, also called compound No. 188) [2-Hydroxyethylcarbamoyl-[D-Pro24, Cha27,36, Leu(Me)28, Lys30, Aib31]-PYY(23-36)]"
2.1,9.3,"Ac-S[dP]RT[Cha][Cha]NL[Aib]TRQR[Cha]-NH2 (SMILES CC(=O)N[C@@H](CO)C(=O)N1CCC[C@@H]1C(=O)N[C@@H](CCCNC(=N)N)C(=O)N[C@H](C(=O)N[C@@H](CC1CCCCC1)C(=O)N[C@@H](CC1CCCCC1)C(=O)N[C@@H](CC(N)=O)C(=O)N[C@@H](CC(C)C)C(=O)NC(C)(C)C(=O)N[C@H](C(=O)N[C@@H](CCCNC(=N)N)C(=O)N[C@@H](CCC(N)=O)C(=O)N[C@@H](CCCNC(=N)N)C(=O)N[C@@H](CC1CCCCC1)C(N)=O)[C@@H](C)O)[C@@H](C)O, also called compound No. 147) [Ac-[D-Pro24, Thr26, Cha27,28,36, Aib31]-PYY(23-36)]"
1.2,1.3,"{2‑hydroxyethylcarbamoyl}-E[dP]RH[Cha][Cha]NK[Aib]TRQR[Cha]-NH2 (SMILES C[C@@H](O)[C@H](NC(=O)C(C)(C)NC(=O)[C@H](CCCCN)NC(=O)[C@H](CC(N)=O)NC(=O)[C@H](CC1CCCCC1)NC(=O)[C@H](CC1CCCCC1)NC(=O)[C@H](Cc1c[nH]cn1)NC(=O)[C@H](CCCNC(=N)N)NC(=O)[C@H]1CCCN1C(=O)[C@H](CCC(=O)O)NC(=O)NCCO)C(=O)N[C@@H](CCCNC(=N)N)C(=O)N[C@@H](CCC(N)=O)C(=O)N[C@@H](CCCNC(=N)N)C(=O)N[C@@H](CC1CCCCC1)C(N)=O, also called compound No. 192) [2-Hydroxyethylcarbamoyl-[Glu23, D-Pro24, Cha27,28,36, Lys30, Aib31]-PYY(23-36)]"
1.8,3.6,"Ac-E[dP]RH[Cha][Cha]NK[Aib]TRQR[Cha]-NH2 (SMILES CC(=O)N[C@@H](CCC(=O)O)C(=O)N1CCC[C@@H]1C(=O)N[C@@H](CCCNC(=N)N)C(=O)N[C@@H](Cc1c[nH]cn1)C(=O)N[C@@H](CC1CCCCC1)C(=O)N[C@@H](CC1CCCCC1)C(=O)N[C@@H](CC(N)=O)C(=O)N[C@@H](CCCCN)C(=O)NC(C)(C)C(=O)N[C@H](C(=O)N[C@@H](CCCNC(=N)N)C(=O)N[C@@H](CCC(N)=O)C(=O)N[C@@H](CCCNC(=N)N)C(=O)N[C@@H](CC1CCCCC1)C(N)=O)[C@@H](C)O, also called compound No. 137) [Ac-[Glu23, D-Pro24, Cha27,28,36, Lys30, Aib31]-PYY(23-36)]"
